In one series the test system is biotinyl-Leu-oxazolone. Put plainly: self-aminoacylation, catalytic enhancement (BLO) (fold over background); higher = more active; k-Seq, kA / k0A0; sequences stand for … in GGGAAUGGAUCCACAUCUACGAAUUC…UUCACUGCAGACUUGACGAAGCUG
A digest of the protocol:
(§1)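 Catalytic enhancement equals the median kA over the uncatalyzed rate, the latter read from the low-activity peak of a bimodal Gaussian fit. Values of kA came from fitting each sequence's fraction reacted to a pseudo-first-order model, with 1000 bootstraps. Reacted RNA was captured with streptavidin and quantified by triplicate qPCR and Illumina sequencing after 90 minutes at room temperature with 2–1250 μM biotinyl-aminoacyl-oxazolone and 0.43 μM mutagenized RNA pools bearing a 21-nt variable region.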

A further series has as its system biotinyl-Phe-oxazolone. Nature of the series: self-aminoacylation, catalytic enhancement (BFO) (fold over background); higher = more active; k-Seq, kA / k0A0; sequences stand for … in GGGAAUGGAUCCACAUCUACGAAUUC…UUCACUGCAGACUUGACGAAGCUG
In outline:
as §1

The next series relates to biotinyl-Trp-oxazolone. Nature of the series: self-aminoacylation, catalytic enhancement (BWO) (fold over background); higher = more active; k-Seq, kA / k0A0; sequences stand for … in GGGAAUGGAUCCACAUCUACGAAUUC…UUCACUGCAGACUUGACGAAGCUG
In outline: as §1

Fewer inactive variants are shown than the library holds.

Our source for the self-aminoacylation values is the supplement of paper PMC9233669.

As for “AUUCACCUAGGUCAUCGGCAG [Fam2.2 aminoacylation ribozyme variant]”, in the series with biotinyl-Leu-oxazolone, the self-aminoacylation stood at 2.03.

Take “CUACGUCAAACAAUCGCUCUG [Fam1A.1 aminoacylation ribozyme variant]”: the self-aminoacylation in the series on biotinyl-Phe-oxazolone came to 3.08; in the series with biotinyl-Leu-oxazolone, 2.07. As to “CGUCACUUCAAGCAAUCGGUC [Fam1B.1 aminoacylation ribozyme variant]”, the self-aminoacylation in the series with biotinyl-Phe-oxazolone was found to be 22; in the series with biotinyl-Trp-oxazolone, 11.1. The corresponding values for “AUACUUCAAAAAAUCGGUCUG [Fam1A.1 aminoacylation ribozyme variant]” are 4.26 and 3.25.

As to “AUUCAGCUAGGUCAUCGGGUC [Fam2.2 aminoacylation ribozyme variant]”, the results for the self-aminoacylation in the series with biotinyl-Phe-oxazolone and in the series with biotinyl-Trp-oxazolone were 13.5 and 3.24, respectively. For “CCUCACUUCAAGCAAUCGGGC [Fam1B.1 aminoacylation ribozyme variant]”, the self-aminoacylation with biotinyl-Trp-oxazolone was found to be 3.32; in the series on biotinyl-Leu-oxazolone, 2.32. As for “AUUCACCCAGGUCGUCGGGUG [Fam2.2 aminoacylation ribozyme variant]”, the self-aminoacylation stood at 9.93 in the series on biotinyl-Phe-oxazolone and 2.84 with biotinyl-Leu-oxazolone. As to “CCACACUUCAAGCAAUCGGCU [Fam1B.1 aminoacylation ribozyme variant]”, the self-aminoacylation worked out at 2.2 with biotinyl-Trp-oxazolone and 2.08 in the series with biotinyl-Leu-oxazolone. Take “AAGGAUGCUAAUAGUCGCAAG [Fam3.1 aminoacylation ribozyme variant]”: the self-aminoacylation in the series with biotinyl-Phe-oxazolone came out at 13.7; in the series with biotinyl-Trp-oxazolone, 5.63. As for “CCAGCCUUCAAGCAAUCGGUC [Fam1B.1 aminoacylation ribozyme variant]”, the self-aminoacylation was 30.7 in the series on biotinyl-Phe-oxazolone and 21.3 with biotinyl-Trp-oxazolone. Regarding “AAGCUUGCUAAUAGUCGCUAG [Fam3.1 aminoacylation ribozyme variant]”, the self-aminoacylation with biotinyl-Phe-oxazolone stood at 2.31; in the series on biotinyl-Trp-oxazolone it was 2. The corresponding values for “AUACUUCAAACAAUCGGGCUG [Fam1A.1 aminoacylation ribozyme variant]” are 3.63 and 3.93. “CCACACUUCAAGCCAUCGCUC [Fam1B.1 aminoacylation ribozyme variant]”: the self-aminoacylation in the series on biotinyl-Trp-oxazolone was found to be 2.72; in the series with biotinyl-Leu-oxazolone it was 2.19. In the case of “AAGUGUGCUCAUAGUCGCAAG [Fam3.1 aminoacylation ribozyme variant]”, the self-aminoacylation in the series with biotinyl-Phe-oxazolone was found to be 4.43; in the series on biotinyl-Trp-oxazolone it was 2.34. In the case of “CUACUUCAACAAAUCGGUCUG [Fam1A.1 aminoacylation ribozyme variant]”, the values for the self-aminoacylation with biotinyl-Phe-oxazolone and with biotinyl-Trp-oxazolone were 7.2 and 5.45, respectively. Regarding “AAGUUUGCGAAUAGUCGCGAG [Fam3.1 aminoacylation ribozyme variant]”, the self-aminoacylation was 8.44 in the series with biotinyl-Phe-oxazolone and 2.14 in the series with biotinyl-Trp-oxazolone. The corresponding values for “CCAGACUUCAAGAAAUCGGUC [Fam1B.1 aminoacylation ribozyme variant]” are 8.29 and 6.84.

As for “UAGUUUCCUAAUAGUCGCAAG [Fam3.1 aminoacylation ribozyme variant]”, the self-aminoacylation was 2.31 in the series with biotinyl-Phe-oxazolone and 2.1 with biotinyl-Trp-oxazolone. As for “AAGUUAGCUAAUAGGCGCAAG [Fam3.1 aminoacylation ribozyme variant]”, the self-aminoacylation with biotinyl-Phe-oxazolone came out at 2.32; in the series with biotinyl-Trp-oxazolone it was 2.47. Take “CUACUUCAAAAAAUCGGGCUG [Fam1A.1 aminoacylation ribozyme variant]”: the self-aminoacylation came out at 3.05 in the series on biotinyl-Phe-oxazolone and 3.06 with biotinyl-Trp-oxazolone.

Turning to “CUGCUUCAAACAAUCGGUCAG [Fam1A.1 aminoacylation ribozyme variant]”, the values for the self-aminoacylation in the series with biotinyl-Phe-oxazolone and with biotinyl-Trp-oxazolone were 41.9 and 23, respectively. “CAACUUCAAACAAUCAGUCUG [Fam1A.1 aminoacylation ribozyme variant]”: the self-aminoacylation with biotinyl-Phe-oxazolone was 29.7; in the series with biotinyl-Trp-oxazolone it was 11.2. As for “CCAACCUUCAAGCAAUCGGUC [Fam1B.1 aminoacylation ribozyme variant]”, the self-aminoacylation with biotinyl-Phe-oxazolone was 25.8; in the series on biotinyl-Trp-oxazolone, 15.3.

Turning to “CCACGCUUCAAGUAAUCGGUC [Fam1B.1 aminoacylation ribozyme variant]”, the self-aminoacylation was determined as 18.1 with biotinyl-Phe-oxazolone and 12.9 in the series with biotinyl-Trp-oxazolone. Regarding “CCACACUUCAAUCAAUCAGUC [Fam1B.1 aminoacylation ribozyme variant]”, the self-aminoacylation is 22.8 with biotinyl-Phe-oxazolone and 7.45 with biotinyl-Trp-oxazolone. On to “AUGUUUGCUAAUAGUCGUAAG [Fam3.1 aminoacylation ribozyme variant]”, for which the values for the self-aminoacylation with biotinyl-Phe-oxazolone and with biotinyl-Trp-oxazolone were 18.7 and 5.05, respectively. Consider “CUACUUCAACUAAUCGGUCUG [Fam1A.1 aminoacylation ribozyme variant]”, for which the self-aminoacylation was 12.9 in the series on biotinyl-Phe-oxazolone and 8.63 with biotinyl-Trp-oxazolone. Take “UUAUUUCAAACAAUCGGUCUG [Fam1A.1 aminoacylation ribozyme variant]”: the values for the self-aminoacylation with biotinyl-Phe-oxazolone and in the series on biotinyl-Trp-oxazolone were 5.5 and 3.27, respectively. Regarding “UCACACUUCAAGUAAUCGGUC [Fam1B.1 aminoacylation ribozyme variant]”, the self-aminoacylation in the series on biotinyl-Phe-oxazolone was 12.7; in the series on biotinyl-Trp-oxazolone it was 7.97. Take “CUCCUUCAAUCAAUCGGUCUG [Fam1A.1 aminoacylation ribozyme variant]”: the self-aminoacylation with biotinyl-Phe-oxazolone turned out to be 24.6; with biotinyl-Trp-oxazolone it was 18.4. As to “CUUCUUCAAACAAUCAGUCUG [Fam1A.1 aminoacylation ribozyme variant]”, the self-aminoacylation with biotinyl-Phe-oxazolone was 12.3; in the series on biotinyl-Trp-oxazolone it was 5.05. For the sequence “AAGUUGGCUAAUAGUCGAAAG [Fam3.1 aminoacylation ribozyme variant]”, the self-aminoacylation was 2.91 with biotinyl-Phe-oxazolone and 2.27 in the series on biotinyl-Trp-oxazolone. As for “GUACUUCAAGCAAUCGGUCUG [Fam1A.1 aminoacylation ribozyme variant]”, the self-aminoacylation with biotinyl-Phe-oxazolone was 8.1; in the series with biotinyl-Trp-oxazolone, 7.17.

In the case of “CCAGACUUCAAUCAAUCGGUC [Fam1B.1 aminoacylation ribozyme variant]”, the self-aminoacylation was determined as 34.2 with biotinyl-Phe-oxazolone and 21.1 in the series on biotinyl-Trp-oxazolone. In the case of “CAACUUCAAAGAAUCGGUCUG [Fam1A.1 aminoacylation ribozyme variant]”, the self-aminoacylation with biotinyl-Phe-oxazolone was determined as 7.1; in the series on biotinyl-Trp-oxazolone it was 7.86. Regarding “AAGUUUGCUAAUUGUCGCAAA [Fam3.1 aminoacylation ribozyme variant]”, the self-aminoacylation in the series on biotinyl-Phe-oxazolone was 8.83; with biotinyl-Trp-oxazolone, 2.49. In the case of “AAGUUGGCUAAUAGUCGCAAG [Fam3.1 aminoacylation ribozyme variant]”, the self-aminoacylation in the series on biotinyl-Phe-oxazolone turned out to be 4.46; in the series on biotinyl-Trp-oxazolone, 2.29.

For the sequence “AUACUUCAAACAAUCGGUCGG [Fam1A.1 aminoacylation ribozyme variant]”, the self-aminoacylation with biotinyl-Phe-oxazolone is 5.46; in the series with biotinyl-Trp-oxazolone, 4.83. “CCAAACUUCAAGUAAUCGGUC [Fam1B.1 aminoacylation ribozyme variant]”: the values for the self-aminoacylation with biotinyl-Phe-oxazolone and in the series on biotinyl-Trp-oxazolone were 10.5 and 7.85, respectively. Consider “AAGUUUGCAAAUAGUCGCGAG [Fam3.1 aminoacylation ribozyme variant]”, for which the self-aminoacylation came to 2.69 with biotinyl-Phe-oxazolone and 3.06 in the series with biotinyl-Trp-oxazolone. Consider “CUGCGUCAAACAAUCGGUCUG [Fam1A.1 aminoacylation ribozyme variant]”, for which the self-aminoacylation in the series with biotinyl-Phe-oxazolone was 8.22; with biotinyl-Trp-oxazolone it was 7.19.

For the sequence “AAGUUUGCUAAUAGUCUCAAG [Fam3.1 aminoacylation ribozyme variant]”, the self-aminoacylation is 15.4 in the series with biotinyl-Phe-oxazolone and 4.26 in the series on biotinyl-Trp-oxazolone.

As for “CUUCUUCAAACAAUCGGUUUG [Fam1A.1 aminoacylation ribozyme variant]”, the results for the self-aminoacylation in the series with biotinyl-Phe-oxazolone and with biotinyl-Trp-oxazolone were 20.7 and 13.8, respectively. Regarding “AAGUGUGCUAACAGUCGCAAG [Fam3.1 aminoacylation ribozyme variant]”, the self-aminoacylation in the series on biotinyl-Phe-oxazolone worked out at 12.8; in the series with biotinyl-Trp-oxazolone it was 4.85. For “AAGUUUGGUCAUAGUCGCAAG [Fam3.1 aminoacylation ribozyme variant]”, the self-aminoacylation amounted to 2.71 in the series with biotinyl-Phe-oxazolone and 2.16 in the series with biotinyl-Trp-oxazolone. Regarding “GUGUUUGCUAAUAGUCGCAAG [Fam3.1 aminoacylation ribozyme variant]”, the self-aminoacylation stood at 5.9 in the series on biotinyl-Phe-oxazolone and 4.15 in the series on biotinyl-Trp-oxazolone. As for “CAACACUUCAAGAAAUCGGUC [Fam1B.1 aminoacylation ribozyme variant]”, the self-aminoacylation in the series on biotinyl-Phe-oxazolone stood at 7.2; in the series on biotinyl-Trp-oxazolone, 5.88.

Take “CUCCUUCAAACAAUCGGUCUA [Fam1A.1 aminoacylation ribozyme variant]”: the self-aminoacylation stood at 18.5 in the series on biotinyl-Phe-oxazolone and 9.25 in the series on biotinyl-Trp-oxazolone. For the sequence “AAGUGUGCUAAAAGUCGCAAG [Fam3.1 aminoacylation ribozyme variant]”, the self-aminoacylation came out at 10.1 in the series with biotinyl-Phe-oxazolone and 4.61 in the series on biotinyl-Trp-oxazolone. As for “CUACUUCAAACAAUCGGUCCC [Fam1A.1 aminoacylation ribozyme variant]”, the self-aminoacylation is 11.1 with biotinyl-Phe-oxazolone and 6.63 in the series on biotinyl-Trp-oxazolone.

For “GAGUUUUCUAAUAGUCGCAAG [Fam3.1 aminoacylation ribozyme variant]”, the self-aminoacylation is 3.59 with biotinyl-Phe-oxazolone and 2.07 in the series on biotinyl-Trp-oxazolone. Regarding “CGACUUCAAACAAUCGGUCCG [Fam1A.1 aminoacylation ribozyme variant]”, the self-aminoacylation in the series on biotinyl-Phe-oxazolone turned out to be 4.63; in the series with biotinyl-Trp-oxazolone, 4.64.
